Laboratory results: article PMC11143692

Biological target: Flag-eIF4E tagged with homotetrameric tag 6 (HOTag6), the eIF4E part of TORSEL (UniProt P06730)
UniProt P06730, sequence (P06730 whole entry): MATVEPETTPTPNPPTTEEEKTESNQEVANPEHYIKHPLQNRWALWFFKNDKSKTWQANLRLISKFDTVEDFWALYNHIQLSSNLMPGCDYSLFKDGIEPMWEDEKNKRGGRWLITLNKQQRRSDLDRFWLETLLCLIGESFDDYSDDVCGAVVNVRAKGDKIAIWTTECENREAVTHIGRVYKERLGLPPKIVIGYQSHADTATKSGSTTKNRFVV

HA-tagged 4EBP1 tagged with mCherry and homohexameric tag 3 (HOTag3), the 4EBP1 part of TORSEL (from UniProt Q13541 1-118) (natural protein)
TORSEL fluorescent puncta in living U2OS cells when mTORC1 is suppressed by serum deprivation, EAA starvation or rapamycin; diffuse under normal culture conditions; 50-90% of cells with visible puncta: 50 to 90 % of cells
